Assay [1] has as its target T1, wild-type yeast αβ-tubulin (S. cerevisiae, UniProt P09733 1-447; P02557 1-457).
T1 construct: Tub1p, α-tubulin of S. cerevisiae; Ayaz et al., 2012; 2014); Tub2p, β-tubulin of S. cerevisiae; Unpolymerized heterodimer in the AUC; polymerised into microtubules in the Bim1-GFP, growth and sedimentation assays; also called WT; wild-type αβ-tubulin
In words: TIRF microscopy of Bim1-GFP on microtubules; dynamic microtubules grown from sea urchin axonemes in flow chambers with 1 mM GTP; 5 or 50 nM Bim1-GFP in solution; 30 °C. The note with it: both partners purified.

For assay [2], the target named is T2, β:T238A αβ-tubulin (S. cerevisiae, UniProt P09733 1-447; P02557 1-457, T238A).
T2 construct: Tub1p, α-tubulin of S. cerevisiae; Tub2p, β-tubulin of S. cerevisiae, with T238A made by QuikChange on the wild-type Tub2 expression plasmid; Unpolymerized heterodimer in the AUC; microtubules in the other assays; also called T238A tubulin; β:T238A microtubules
The description is as above. The note with it: both partners purified.

Assay [3] deals with T3, β:C354A αβ-tubulin (S. cerevisiae, UniProt P09733 1-447; P02557 1-457, C354A).
T3 construct: Tub1p, α-tubulin of S. cerevisiae; Tub2p, β-tubulin of S. cerevisiae, with C354A (yeast numbering); The making of the C354A plasmid is not described; Used as microtubules; also called β:C354A microtubules
The description is as above. The note with it: both partners purified.

Assay [4] has as its target β:T238A αβ-tubulin (S. cerevisiae, UniProt P09733 1-447; P02557 1-457, T238A). In words: AUC.
For assay [5], the target named is T4, wild-type yeast αβ-tubulin (S. cerevisiae, UniProt P09733 1-447; P02557 1-457).
T4 chain 1: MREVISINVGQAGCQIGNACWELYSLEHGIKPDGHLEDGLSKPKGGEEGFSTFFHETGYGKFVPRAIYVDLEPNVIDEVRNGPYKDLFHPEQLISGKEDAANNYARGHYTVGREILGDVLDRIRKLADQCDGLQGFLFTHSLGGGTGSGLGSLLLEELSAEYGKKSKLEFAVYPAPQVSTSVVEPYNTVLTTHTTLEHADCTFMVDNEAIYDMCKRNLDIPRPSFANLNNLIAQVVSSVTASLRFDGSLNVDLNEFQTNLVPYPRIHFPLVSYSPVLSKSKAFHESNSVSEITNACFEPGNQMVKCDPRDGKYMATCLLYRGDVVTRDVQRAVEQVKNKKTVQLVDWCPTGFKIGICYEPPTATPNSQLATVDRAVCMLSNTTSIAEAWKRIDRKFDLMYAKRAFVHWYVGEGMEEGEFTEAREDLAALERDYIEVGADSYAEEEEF
T4 chain 2: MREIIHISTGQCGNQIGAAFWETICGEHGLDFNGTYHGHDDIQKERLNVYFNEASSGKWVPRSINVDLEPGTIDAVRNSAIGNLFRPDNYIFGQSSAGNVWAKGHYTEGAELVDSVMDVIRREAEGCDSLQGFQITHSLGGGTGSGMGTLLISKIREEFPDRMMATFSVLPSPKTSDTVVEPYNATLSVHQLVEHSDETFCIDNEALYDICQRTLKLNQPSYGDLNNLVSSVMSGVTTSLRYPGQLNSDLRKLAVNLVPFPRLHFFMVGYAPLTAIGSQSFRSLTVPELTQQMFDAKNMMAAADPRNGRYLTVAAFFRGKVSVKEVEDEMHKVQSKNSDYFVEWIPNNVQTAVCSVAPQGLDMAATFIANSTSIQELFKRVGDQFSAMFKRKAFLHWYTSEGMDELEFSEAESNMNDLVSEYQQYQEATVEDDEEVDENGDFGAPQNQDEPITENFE
In words: AUC.

Assay [6] concerns the target T1, wild-type yeast αβ-tubulin. In words: AUC; sedimentation velocity, 50,000 rpm, 20 °C, absorbance at 229 nm; 0.15 µM T238A αβ-tubulin with 0.015-5 µM TOG1 or TOG2; RB100 (25 mM Tris pH 7.5, 1 mM MgCl2, 1 mM EGTA, 100 mM NaCl) with 20 µM GTP; analysed with SEDFIT and SEDPHAT. The note with it: both partners purified.
Assay [7] addresses T2, β:T238A αβ-tubulin. The description is as above. As to conditions: both partners purified.

B1: Bim1-GFP fusion protein (natural protein, yeast, UniProt P40013 1-344, looked up)
chain: MSAGIGESRTELLTWLNGLLNLNYKKIEECGTGAAYCQIMDSIYGDLPMNRVKFNATAEYEFQTNYKILQSCFSRHGIEKTVYVDKLIRCKFQDNLEFLQWLKKHWIRHKDESVYDPDARRKYRPIITNNSATKPRTVSNPTTAKRSSSTGTGSAMSGGLATRHSSLGINGSRKTSVTQGQLVAIQAELTKSQETIGSLNEEIEQYKGTVSTLEIEREFYFNKLRDIEILVHTTQDLINEGVYKFNDETITGHGNGNGGALLRFVKKVESILYATAEGFEMNDGEDELNDKNLGEHGTVPNQGGYANSNGEVNGNEGSNHDVIMQNDEGEVGVSNNLIIDEETF
notes: Bim1p, the yeast EB1 family protein; C-terminal EGFP-tag followed by a Strep-tag II; also called Bim1p; yeast EB1 protein; source: E. coli BL21(DE3), purified (His60 Superflow column, Strep-Tactin Superflow column); not shown: EGFP, C-terminal, kept
For the molecule B1, the binding result in assay [1], in assay [2] and in assay [3] was “binds” each time.

B2: TOG2(318-560) of Stu2p (domain or fragment, yeast, UniProt P46675 318-560, looked up)
chain: MLPEETILDKLPKDFQERITSSKWKDRVEALEEFWDSVLSQTKKLKSTSQNYSNLLGIYGHIIQKDANIQAVALAAQSVELICDKLKTPGFSKDYVSLVFTPLLDRTKEKKPSVIEAIRKALLTICKYYDPLASSGRNEDMLKDILEHMKHKTPQIRMECTQLFNASMKEEKDGYSTLQRYLKDEVVPIVIQIVNDTQPAIRTIGFESFAILIKIFGMNTFVKTLEHLDNLKRKKIEETVKTL
notes: Stu2p, yeast microtubule polymerase, TOG2 domain, residues 318-560; Plasmid described in Ayaz et al., 2012; 2014; also called Stu2 TOG2 domain
In general, Kd refers to the free concentration of one partner at which half of the binding sites on the other are occupied at equilibrium, for simple one-to-one binding. Read a high Kd as a looser complex. Take B2: the Kd in assay [4] was 160 nM; in assay [5], 180 nM. Besides, the binding result in assay [6] and in assay [7] was “binds” each time.

B3: TOG1(1-317) of Stu2p (domain or fragment, yeast, UniProt P46675 1-317, looked up)
chain: MSGEEEVDYTTLPLEERLTYKLWKARLEAYKELNQLFRNSVGDISRDDNIQIYWRDPTLFAQYITDSNVVAQEQAIVALNSLIDAFASSSLKNAHNITLISTWTPLLVEKGLTSSRATTKTQSMSCILSLCGLDTSITQSVELVIPFFEKKLPKLIAAAANCVYELMAAFGLTNVNVQTFLPELLKHVPQLAGHGDRNVRSQTMNLIVEIYKVTGNNSDLLEEILFKKLKPIQVKDLHKLFAKVGDEPSSSKMLFEWEKRELEKKRSQEEEARKRKSILSNDEGEYQIDKDGDTLMGMETDMPPSKQQSGVQIDTFS
notes: Stu2p, yeast microtubule polymerase, TOG1 domain, residues 1-317; Plasmid described in Ayaz et al., 2012; 2014; also called Stu2 TOG1 domain
Turning to B3, the equilibrium dissociation constant (Kd) in assay [4] is 50 nM; in assay [5], 90 nM. Moreover, the binding result in assay [6] and in assay [7] was “binds” throughout.
